Data reported in publication PMC7840982, “Purification of Crimean–Congo hemorrhagic fever virus nucleoprotein and its utility for serological diagnosis” (Scientific Reports, 2021).

Target: the molecule itself
Experiment: negative-stain transmission electron microscopy

B1: Crimean–Congo hemorrhagic fever virus nucleoprotein (strain IbAr10200), recombinant, untagged (natural protein)
chain: MENKIEVNNKDEMNRWFEEFKKGNGLVDTFTNSYSFCESVPNLDRFVFQMASATDDAQKDSIYASALVEATKFCAPIYECAWVSSTGIVKKGLEWFEKNAGTIKSWDESYTELKVDVPKIEQLTGYQQAALKWRKDIGFRVNANTAALSNKVLAEYKVPGEIVMSVKEMLSDMIRRRNLILNRGGDENPRGPVSHEHVDWCREFVKGKYIMAFNPPWGDINKSGRSGIALVATGLAKLAETEGKGIFDEAKKTVEALNGYLDKHKDEVDRASADSMITNLLKHIAKAQELYKNSSALRAQSAQIDTAFSSYYWLYKAGVTPETFPTVSQFLFELGKQPRGTKKMKKALLSTPMKWGKKLYELFADDSFQQNRIYMHPAVLTAGRISEMGVCFGTIPVANPDDAAQGSGHTKSILNLRTNTETNNPCAKTIVKLFEVQKTGFNIQDMDIVASEHLLHQSLVGKQSPFQNAYNVKGNATSANII
notes: also called CCHFV NP; NP
- binding result: binds
